From patent US6207816

Legend:
[1] = biological target: T1, KGF (hKGF) (Homo sapiens) (UniProt P21781); experiment: filter; settings: 2'-F pyrimidines
T1 sequence: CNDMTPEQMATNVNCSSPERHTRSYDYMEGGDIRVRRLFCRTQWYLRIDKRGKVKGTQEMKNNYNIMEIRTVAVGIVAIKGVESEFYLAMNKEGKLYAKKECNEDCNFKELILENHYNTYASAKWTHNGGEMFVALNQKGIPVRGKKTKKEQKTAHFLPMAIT

[2] = biological target: T1, KGF (hKGF) (Homo sapiens); experiment: competition; settings: 2'-F pyrimidines; for IC50: PC-3 assay

GGGAGGACGAUGCGGGAAUUCCCAGCGCUUGACUGAUACAAACNUUCCCGUGCCGCAGACGACUCGCCCGA [16F]
Kd ([1]; biphasic, high affinity 49%, Kd2 3.39 nM): 0.83 nM

GGGAGGACGAUGCGGGGACAAWYAGCGGUGUCUUUUCAUUUNKAUCCUCCGACRUCCCAGACGACUCGCCCGA [56F (K56F)]
IC50 [2]: 1 nM

GGGAGGACGAUGCGGNGACUGAUUUUUCCUUGNBCAGUGUAAUUUCCUGGCUGCCCCAGACGACUCGCCCGA [38F (K38F)]
IC50 [2]: 0.6 nM | Ki ([2]; PC-3 cells, 20 nM on NIH3T3/FGFR-2): 0.22 nM

GGGAGGACGAUGCGGCAANNNNNNNCUCUCUCCUGGCGUUCCGCAACCCGCCCCCAGACGACUCGCCCGA [19F]
Kd ([1]; second column 0.94-2.57): 1.5 nM

GGGAGGACGAUGCGGGGACAAWYAGCGGUGUCUUUUCAUUUNKAUCCUCCGACRUCCCAGACGACUCGCCCGA [56F]
Kd ([1]; biphasic, 32% high affinity, Kd2 3.00 nM): 0.07 nM

GGGAGGACGAUGCGGGAAUUAACAGGGCCAGAAUUCUCAUCUNNCUUCCCGUGACCCAGACGACUCGCCCGA [12F]
Kd ([1]; DPBS, 37 C): 1.38 nM

GGGAGGACGAUGCGGNGACUGAUUUUUCCUUGNBCAGUGUAAUUUCCUGGCUGCCCCAGACGACUCGCCCGA [38F]
Kd ([1]; DPBS, 37 C): 0.33 nM
